From patent US20120093837A1 (CELL SIGNALING TECHNOLOGY INC A, published 2012) come the findings set out here.

The target of experiment [1] is phage-displayed peptide …. Kind of experiment: phage display biopanning on plate-coated antibody, PhD 12 library, three rounds.
Experiment [2] concerns the target T1, human EGFR with E746-A750 deletion (human, UniProt P00533 25-1210).
T1 construct: Endogenous mutant EGFR of HCC827 and H1650 cells and of NSCLC tumor samples; also called EGFR (E746-A750del); dEGFR
Kind of experiment: IHC on paraffin-embedded xenografts and cell pellets. How it is done:
To test the specificity of binding of the rabbit monoclonal antibodies described in Example 1, xenografts were prepared of human cancer cells in nude mice.
For […] analysis, all analyses were performed on formalin-fixed, paraffin-embedded blocks. Serial 4-um-thick tissue sections were cut from TMAs for immunohistochemistry study. The slides were baked at 55° C. overnight, then deparaffinized in xylene and rehydrated through a graded series of ethanol concentrations. Antigen retrieval (microwave boiling for 10 minutes in 1 mM EDTA) was performed. Intrinsic peroxidase activity was blocked by 3% hydrogen peroxide for 10 min. 5% goat serum (Sigma) solution was used for blocking nonspecific antibody binding, and the optimally diluted primary antibodies were applied to cover the specimen. Slides were incubated at 4° C. overnight. After three washes in TBS-T for 5 minutes each, slides were incubated for 30 min with labeled polymer-HRP anti-rabbit secondary antibody at room temperature. Following three additional washes in TBS-T, slides were visualized using substrate-chromagen (Envision™+kit, commercially available from Dako). Sections were scanned at low magnification. Intensity of the staining as well as percentage of positive cells was recorded. Stain intensity was scored from 0 to 3+, based on the, staining intensity and percentage of positive cells were recorded.

B1: EGFR L858R (43B2E11E5B2) rabbit monoclonal antibody (antibody, V domains shown)
VH: QSVEESGGRLVTPGTPLTLTCTVSGFSLNTYGVSWVRQAPGKGLEWIGYIFTDGQTYYASWAKGRFTISKTSSTTVDLKITSPTTEDTATYFCASVDIWGPGTPVTVSS
VL: AQVLTQTPSPVSAAVGSTVTIKCQSSPSVYSNYLSWYQQKSGQPPKQLIYDASHLASGVPSRFSGSGSGTQFTLTISGVQCDDAATYYCLGSYDCSSVDCHAFGGGTEVVVKG
notes: Rabbit monoclonal from a hybridoma clone; also called L858R RmAb; L858R-specific antibody
Regarding B1, the Clone Frequency in experiment [1] was 1 of 9 clones. The binding result in experiment [2] is reported as “no binding”.
